± gives the uncertainty stated by the source.

A short description of the series: amyloid nucleation score (Sup35N fusion, yeast selection) (log enrichment); library NNK3; higher = more nucleation; inactive = no reads after selection. The gist of the method: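 Peptides of 20 random codons fused to Sup35N were expressed in psi-negative yeast, induced 24 hours with 100 μM copper sulfate, then grown 7 days at 30°C on medium lacking adenine and uracil. Input and output plasmid inserts were Illumina-sequenced. Nucleation score is the DiMSum log enrichment of output over input reads, centred on the mode score of non-aggregating sequences, excluding sequences with under 100 input reads. Random libraries had three technical output replicates.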
On to RCLPMG, for which the amyloid nucleation score result was “inactive”.
The value for RCNHSCFGSIMGCVVLCPGE was 1.33 ± 0.13; that for RCTVNRRQSRSAHGMGPSSS was “inactive”.
For the substance RCVIMTPLAIREHDNDASCQ, the amyloid nucleation score entry was “inactive”.
With RCVQCEAYFCLFDKPDVDDT, the amyloid nucleation score was found to be 3.05 ± 0.053.
In the case of RCYVRFSRSRVVHIMLVYMP, the amyloid nucleation score result was “inactive”.
The result for RDHMSS reads “inactive”.
The result for RDIVVNRLVRACSLGFLCLG reads -0.792 ± 1.4; that for RDNWSVNLDTKHDLSIAGKL, “inactive”; that for RDPDGRIYMYGLDVIQYVTN, “inactive”.
The result for RDRLKVLLLIFHSRDDTRTK reads “inactive”; that for RDRLVWDRCRTVAPSTGVVR, “inactive”.
For RDSRRETKTNIWIVRYTLW, the amyloid nucleation score result is “inactive”.
The result for RDVIRRVVRMHLQLYMFMVG reads -0.135 ± 0.98; that for RDVVCRRMRTRVLSSHAPPR, “inactive”; that for REASVECH, “inactive”.
For the substance REGSDHRFMICETFYFE, the amyloid nucleation score entry is “inactive”.
With REKLDQP, the amyloid nucleation score result is “inactive”.
The value for REKTWFCSFIVTLGVCGWDG was “inactive”.
The value for RELRF was “inactive”; that for RERIYAELFSSWRRSAKGIF was “inactive”.
The result for REYSEA reads “inactive”; that for RFCRSSWMYPVEGQVGHIRE, “inactive”; that for RFGALVTLVFVCYHWNRPTA, 0.753 ± 0.16.
RFGYKLFRSSVYGRGESYDY: the amyloid nucleation score entry was “inactive”.
Turning to RFISEYCMFENKEMVEPSFG, the amyloid nucleation score result is “inactive”.
Take RFIVANHLGGVYLQE: the amyloid nucleation score entry was “inactive”.
As for RFLLHLML, the amyloid nucleation score is -0.4 ± 0.45.
In turn, RFQFIEFSSTVSSGGWTFFI registered an amyloid nucleation score of -0.165 ± 0.39.
The result for RFSFVTRFRYREQLPLVR reads 0.068 ± 0.82.
The result for RFTCKYLPTLLTGVIRGPSP reads “inactive”; that for RFTYGDRCMKMRMPNFETAH, “inactive”.
The result for RFVAHG reads “inactive”; that for RFWLDYEGRNAYWMGITHVW, “inactive”.
For the substance RFWLLRRVVWEME, the amyloid nucleation score entry was “inactive”.
On to RFWSMRALR, for which the amyloid nucleation score entry was “inactive”.
The value for RGAFSPVVWSDRMELLGRWL was “inactive”.
The value for RGFFMVWLMNCLMRFRISDF was “inactive”.
The value for RGFLVRWAPFCLGFGSTLND was “inactive”.
Turning to RGIPDLVIY, the amyloid nucleation score entry is “inactive”.
RGKFHRVA: the amyloid nucleation score entry was “inactive”.
The value for RGLQELLWI was -0.999 ± 1.9; that for RGNATGSIKD was “inactive”.
The value for RGQCVPDAGQVRNGTCMRV was “inactive”; that for RGQFYLLVARLNSKM was “inactive”.
The result for RGSCEFSSLECDTWSNRPSD reads “inactive”; that for RGSDIMAFAVDYTDNKSECS, “inactive”.
As for RGVNKRKADVTRGCYSVVLN, the amyloid nucleation score entry was “inactive”.
The value for RGVYNEHFCCGFSMWEPING was 2.3 ± 0.067; that for RGWDVWAVHSEFYCLKKLIV was “inactive”.
Regarding RHAPNVLKYLAHFNDYRQWH, the amyloid nucleation score result was “inactive”.
Turning to RHNISFT, the amyloid nucleation score entry was “inactive”.
As for RHNVRCYCLGLMPNAPVDKL, the amyloid nucleation score result is “inactive”.
The result for RHRLAHMRNKWRGQVHCPKG reads “inactive”; that for RHSFMRFRLSNWV, “inactive”; that for RHYLLCYIKRHTRLQIYKFS, “inactive”.
With RIFRCVEIA, the amyloid nucleation score result is “inactive”.
On to RIITLNRHIRRVFRMGCRSM, for which the amyloid nucleation score result was “inactive”.
The value for RILFDAARRIRWTVMCTKSC was “inactive”; that for RIMLVYCMGSRGIAMFCQHN was “inactive”; that for RINESRLYLSEVKYGLTCVR was “inactive”.
RIQCIRLDHFSLSLFYFFTA returned an amyloid nucleation score of 0.636 ± 0.21.
The value for RIRMSCYLIVYIGIACGYIS was “inactive”; that for RIVGRLVSRALWWV was “inactive”.
The result for RKAGR reads “inactive”; that for RKDYGMLYFFLSSRKCTHAI, “inactive”.
On to RKGNGMHKNSYSTARMYCGF, for which the amyloid nucleation score entry was “inactive”.
Take RKILVVFLSWFNFKVYSNSM: the amyloid nucleation score result is “inactive”.
The value for RKKESYSN was “inactive”.
The result for RKLWLMCYS reads “inactive”; that for RKNLWLVTTGNSARDMLSKM, “inactive”; that for RKYTKCSFRKKSWCPSPFEL, “inactive”.
Take RLANKFSMTSGT: the amyloid nucleation score result is “inactive”.
In the case of RLFFGYCRMDVIFAPYISCV, the amyloid nucleation score entry was “inactive”.
The result for RLHLAPTNCREVNWPTLWLA reads -0.565 ± 1.8; that for RLHLRKYFFETAHWICMNDG, “inactive”.
The value for RLKRYLHSMTHRRMRERYCY was “inactive”; that for RLLLMSRSLMIRFVLSLVLE was “inactive”; that for RLLRVGFMLRFLIMIRRVRF was -0.365 ± 1.
The result for RLLVGFIWSWLGISYFTRFL reads “inactive”.
RLMNFVPSFVFCCFYKK came in with an amyloid nucleation score of 1.27 ± 0.14.
The value for RLNTMCYSSALASS was “inactive”; that for RLNYWMTDDGCGRSCDTRVE was “inactive”; that for RLRQTATCIRFVFAGNVLAN was 0.018 ± 1.2.
The result for RLSGSEKVELM reads “inactive”; that for RLSYQYFCQAMRMEGEFWSY, -0.16 ± 0.33; that for RLTYIVCSA, “inactive”.
The result for RLVWGCCLLDTCVVEQGSGV reads 2.78 ± 0.076; that for RLYLNSFSHQNSCPRDLDGL, 0.969 ± 0.1; that for RMCKTATVIHYGLFINLTEF, “inactive”.
Take RMEKIRTKVNSVTDSSWKSR: the amyloid nucleation score entry is “inactive”.
Substance RMFVSIRLLGTCCSDWSYYE had an amyloid nucleation score of 1.78 ± 0.085.
The result for RMGHVFMYDYHIV reads “inactive”.
With RMGIASIYAIVLQPMIRLWL, the amyloid nucleation score entry is “inactive”.
The result for RMLMIMVACVGTYDSSN reads “inactive”; that for RMPYKMQFFCNLWLSVYSTL, “inactive”.
The result for RMRDRSGMGRTFHHGTQTTV reads “inactive”.
The result for RMSVSSFRVVWSTIAYTKST reads “inactive”.
For the substance RMWLD, the amyloid nucleation score result is “inactive”.
Take RNCNETLNIVETGNSISANV: the amyloid nucleation score entry is “inactive”.
The value for RNGLSIGVNVGHLT was “inactive”; that for RNIRYLTLYQVTYLGRRRT was 2.25 ± 0.093; that for RNSIMSSDWSHSGYGS was “inactive”.
The value for RNSTMIYTQ was 2.24 ± 0.093; that for RNYNYFINCVHWLYLVSWGL was 0.605 ± 0.45; that for RPFNRTYHILLYQMHYVRST was “inactive”.
The value for RPFSPVVLMVYGKKRRTWTR was “inactive”.
Consider RPGTCNLLVDGHLSWFQSAT, for which the amyloid nucleation score is -0.288 ± 1.
The value for RPMDDKWLIGLFARNERDVP was “inactive”.
The result for RPRLYFLTSNLKTQCAVHNA reads “inactive”; that for RPRMPVRLWWYTKLGYFKDR, “inactive”; that for RPSSVDRLGSRDIRG, -0.413 ± 1.9.
The result for RPTGYQVTYEMRRSGG reads “inactive”.
Turning to RPVSGTNFINAN, the amyloid nucleation score result was “inactive”.
The value for RPVSTSYVRLRRVRFSYNLN was “inactive”.
The result for RQDLSHSFSDGRERQHWAKR reads -0.165 ± 0.81; that for RQLVNCQGFVLYTREMDFEA, “inactive”.
The value for RQWQGNFSSVGFLEIKDALF was “inactive”.
Turning to RQYWCFYQSWNSLG, the amyloid nucleation score entry was “inactive”.
The value for RRAGNKWYVR was “inactive”; that for RRALYKLSSKESWPVDCNSV was “inactive”; that for RRFKYIGLRGTMHRLNYFGL was “inactive”.
The value for RRGNDRKRLWAVNLDTGNFL was “inactive”; that for RRRERGASNVDELWF was “inactive”.
The result for RRRLG reads “inactive”; that for RRRLIR, “inactive”; that for RRSRFTFSYIIRSLCASRTF, “inactive”.
As to RRSTYLIVFVG, the amyloid nucleation score entry was “inactive”.
The value for RRTPLWSPMVRNLSYALLAG was “inactive”; that for RRVTFGGMAHSERKRYCLFT was “inactive”.

Values taken from the supplement of paper PMC12042874.
